Measurements reported in US20120171195A1.

Experiments:
[1] = target: HLA-B*1401 (human) (UniProt P01889); test: Luminex beads; MAb 1/200; PBS only
[2] = target: HLA-B*4006 (human) (UniProt P01889); test: Luminex beads; MAb 1/200; PBS only
[3] = target: HLA-B*4501 (human); test: Luminex beads; MAb 1/200; PBS only
[4] = target: HLA-B*5801 (human); test: Luminex beads; MAb 1/200; PBS only
[5] = target: HLA-Cw*0202 (human); test: Luminex beads; MAb 1/200; PBS only
[6] = target: HLA-Cw*0501 (human); test: Luminex beads; MAb 1/200; PBS only
[7] = target: HLA-Cw*1701 (human); test: Luminex beads; MAb 1/200; PBS only
[8] = target: HLA-Cw*1802 (human) (UniProt P10321); test: Luminex beads; MAb 1/200; PBS only
[9] = target: HLA-B*5101 (human); test: Luminex beads; MAb 1/400; competitor rHLA-E
[10] = target: HLA-Cw*1701 (human); test: Luminex beads; MAb 1/400; competitor rHLA-E

murine monoclonal antibody (MAb) MEM-E/02
MFI [1]: 5330 MFI | MFI [2]: 7010 MFI | MFI [3]: 3670 MFI | MFI [4]: 2830 MFI | MFI [5]: 3020 MFI | MFI [6]: 5830 MFI | MFI [7]: 2270 MFI | MFI [8]: 8830 MFI | MFI [9]: 128 MFI | MFI [10]: 184 MFI
